Measured values as given in paper PMC12048488.

Target: HTT-Q20 (endogenous knock-in huntingtin: mouse Htt with humanized HTT exon 1, normal polyQ) (human | mouse)
Test: affinity purification with mass spectrometry; evaluation of antibodies: IP-MS from whole brain and striatum lysates of 8-week Q20 and Q140 mice with EPR5526, 2B7-4C9, 4E10-3E10 or 138-139 antibodies against mIgG controls

stoichiometry N (HTT:HAP40 ratio): 1
B1: HAP40 (F8a1), Huntingtin-associated protein 40 (natural protein)
chain: MAAGSASSLGGGAWPGSEAGDFLARYRQVSNKLKKRFLRKPNVAEAGEQFAQLARELRAQECLPYAAWCQLAVARCQQALFHGPGEALALTEAARLFLRQECDARQRLGCPAAYGEPLQAAASALGAAVRLHLELGQPAAAAALCLELAAALRAVGQPAAAAGHFQRAAQLHLPLMPLAALQALGDAASCQLLARDYTGALALFTRMQRLAREHGGHPVQQLELLPQPPSGPQPPLSGPQPRPVLGSTLPLPQPPDHAPGSVAPSPGTLGAFADVLVRCEVSRVLLLLLLQPPPAKLLPEHAQTLEKYSWEAFDGHGQDTSGQLPEELFLLLQSLVMAAQEKDTEGIKKLQVEMWPLLTAEQNHLLHLVLQETISPSGQGV
